IntAct's records for PubMed 15665853

B1: Spindle assembly abnormal protein 5 (Caenorhabditis elegans), Q20010 (parent)
chain: MNNYDDLPCSIYFKKPTVQEFVDQPRVFEDSEVPAFQEVLQLPQERTKPPVPSTQPIVAAVEVAKKKSCLSAPKPRKEPPSHPALRQKTVAFGKTVNVSQTVEGTSRNSKKVLASTMSAQNTTTTEEQAAENWRDAMKTELQTIRTEIQEETARRQEELNAQNLVKMQELMSNFFQKITIPKQQAIEPVEKDKENFHESPRQSRQQKPASKIASAREVIKRDGVIPPEALTIIEQRLRSDPMFRQQIDNVLADAECDANRAAYSPPPPMSEVRYGSGVNPALMRETLTVERSIRYDNGLASIDSRQWTNERRDNRAPDSYRTYEPDQPCHSLYQKGQSISYYPSEAAGKTTARNNRTGYYVEDSSDHEEDVVVNKRGQNYHEQAVPETPAERERRIREKYARRK
partner: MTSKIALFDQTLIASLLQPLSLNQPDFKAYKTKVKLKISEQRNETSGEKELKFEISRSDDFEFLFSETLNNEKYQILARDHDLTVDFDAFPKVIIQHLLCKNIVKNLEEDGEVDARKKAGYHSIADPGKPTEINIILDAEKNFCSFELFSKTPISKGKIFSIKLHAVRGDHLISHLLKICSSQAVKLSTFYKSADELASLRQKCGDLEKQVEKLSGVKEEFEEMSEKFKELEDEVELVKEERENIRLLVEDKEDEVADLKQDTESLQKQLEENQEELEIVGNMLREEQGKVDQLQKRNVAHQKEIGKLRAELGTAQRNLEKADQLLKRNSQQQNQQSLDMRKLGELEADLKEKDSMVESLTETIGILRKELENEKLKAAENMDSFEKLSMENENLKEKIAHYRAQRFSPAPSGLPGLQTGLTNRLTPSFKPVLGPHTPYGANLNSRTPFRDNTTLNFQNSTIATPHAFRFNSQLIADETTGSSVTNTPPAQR

Variants of: B1
Conditions: with sas6_caeel sas-6, O62479

Variant | effect of a mutation on the interaction
MNNYDDLPCSIYFKKPTVQEFVDQPRVFEDSEVPAFQEVLQLPQERTKPPVPSTQPIVAAVEVAKKKSCLSAPKPRKEPPSHPALRQKTVAFGKTVNVSQTVEGTSRNSKKVLASTMSAQNTTTTEEQAAENWRDAMKTELQTIRTEIQEETARRQEELNAQNLVKMQELMSNFFQKITIPKQQAIEPVEKDKENFHESPRQSRQQKPASKIASAREVIKRDGVIPPEALTIIEQRLRSDPMFRQQIDNVLADAECDANRAAYSPPPPMSEVRYGSGVNPALMRETLTVERSIRYDNGLASIDSRQWTNERRDNRAPDSYRTYEPDQPCHSLYQKGQSISYYPSEAAGKTTARNNRTGYYVEDSSDHEEDVVVNKRGQNYHEQAVPETPAERERRICEKYARRK [R397C] | decreasing interaction
